Test results as given in the supplement of paper PMC10065799, “High-throughput profiling of sequence recognition by tyrosine kinases and SH2 domains using bacterial peptide display” (eLife, 2023).

Legend:
Jak2 = Jak2 (UniProt O60674); test: phosphorylation enrichment, bacterial display (enrichment ratio); higher = better substrate or ligand; peptides without Tyr show the background
c-Src = test: as above
MERTK = MERTK (UniProt Q12866); test: as above
EPHB1 = EPHB1 (UniProt P54762); test: as above
Sequence of EPHB1 (P54762 whole entry, looked up): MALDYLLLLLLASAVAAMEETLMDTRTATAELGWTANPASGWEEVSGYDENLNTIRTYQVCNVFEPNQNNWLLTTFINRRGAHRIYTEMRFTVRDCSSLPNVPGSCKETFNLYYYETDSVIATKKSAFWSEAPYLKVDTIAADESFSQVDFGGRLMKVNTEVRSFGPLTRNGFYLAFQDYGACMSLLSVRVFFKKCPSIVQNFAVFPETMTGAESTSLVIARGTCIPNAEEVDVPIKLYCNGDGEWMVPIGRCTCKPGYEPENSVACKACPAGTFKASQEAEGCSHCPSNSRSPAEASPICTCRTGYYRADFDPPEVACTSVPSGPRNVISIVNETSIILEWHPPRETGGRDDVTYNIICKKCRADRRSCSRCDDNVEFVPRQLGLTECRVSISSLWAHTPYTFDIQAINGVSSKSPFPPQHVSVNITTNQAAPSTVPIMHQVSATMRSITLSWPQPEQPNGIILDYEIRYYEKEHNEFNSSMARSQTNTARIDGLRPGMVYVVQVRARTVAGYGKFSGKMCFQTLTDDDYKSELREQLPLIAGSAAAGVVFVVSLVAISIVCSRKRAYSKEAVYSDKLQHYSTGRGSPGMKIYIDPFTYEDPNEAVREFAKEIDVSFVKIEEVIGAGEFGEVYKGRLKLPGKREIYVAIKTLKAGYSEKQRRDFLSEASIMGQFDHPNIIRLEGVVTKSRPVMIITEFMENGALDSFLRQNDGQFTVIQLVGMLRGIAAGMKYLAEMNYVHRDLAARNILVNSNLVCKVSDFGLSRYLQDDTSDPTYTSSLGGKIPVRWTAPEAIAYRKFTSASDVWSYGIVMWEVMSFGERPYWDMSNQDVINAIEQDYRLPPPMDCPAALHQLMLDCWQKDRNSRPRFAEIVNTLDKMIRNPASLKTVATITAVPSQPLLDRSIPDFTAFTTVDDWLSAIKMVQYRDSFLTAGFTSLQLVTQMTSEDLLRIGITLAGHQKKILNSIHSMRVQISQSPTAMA

Fes = Fes (UniProt P07332); test: as above
Sequence of Fes (P07332 whole entry, looked up): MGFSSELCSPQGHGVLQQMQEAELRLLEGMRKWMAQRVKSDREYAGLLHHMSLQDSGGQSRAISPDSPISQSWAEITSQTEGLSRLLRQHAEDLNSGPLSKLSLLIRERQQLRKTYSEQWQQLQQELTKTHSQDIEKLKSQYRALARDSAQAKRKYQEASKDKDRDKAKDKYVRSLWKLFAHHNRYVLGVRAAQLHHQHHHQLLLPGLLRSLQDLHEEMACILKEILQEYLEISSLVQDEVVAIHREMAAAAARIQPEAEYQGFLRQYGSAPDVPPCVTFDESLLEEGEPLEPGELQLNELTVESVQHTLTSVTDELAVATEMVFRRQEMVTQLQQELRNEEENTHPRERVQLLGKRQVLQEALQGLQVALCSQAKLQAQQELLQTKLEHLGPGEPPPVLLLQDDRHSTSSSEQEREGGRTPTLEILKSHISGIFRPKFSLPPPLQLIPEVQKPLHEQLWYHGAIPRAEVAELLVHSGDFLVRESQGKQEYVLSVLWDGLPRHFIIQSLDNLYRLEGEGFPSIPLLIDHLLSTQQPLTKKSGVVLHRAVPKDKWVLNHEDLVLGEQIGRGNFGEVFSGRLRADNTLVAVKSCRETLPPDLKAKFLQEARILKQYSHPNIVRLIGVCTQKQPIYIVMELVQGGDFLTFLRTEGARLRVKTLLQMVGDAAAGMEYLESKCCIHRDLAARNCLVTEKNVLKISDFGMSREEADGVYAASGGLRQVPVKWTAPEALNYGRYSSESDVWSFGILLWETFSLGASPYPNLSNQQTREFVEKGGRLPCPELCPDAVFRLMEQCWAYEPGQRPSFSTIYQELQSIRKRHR

EPHB2 = EPHB2 (UniProt P29323); test: as above
Sequence of EPHB2 (P29323 whole entry, looked up): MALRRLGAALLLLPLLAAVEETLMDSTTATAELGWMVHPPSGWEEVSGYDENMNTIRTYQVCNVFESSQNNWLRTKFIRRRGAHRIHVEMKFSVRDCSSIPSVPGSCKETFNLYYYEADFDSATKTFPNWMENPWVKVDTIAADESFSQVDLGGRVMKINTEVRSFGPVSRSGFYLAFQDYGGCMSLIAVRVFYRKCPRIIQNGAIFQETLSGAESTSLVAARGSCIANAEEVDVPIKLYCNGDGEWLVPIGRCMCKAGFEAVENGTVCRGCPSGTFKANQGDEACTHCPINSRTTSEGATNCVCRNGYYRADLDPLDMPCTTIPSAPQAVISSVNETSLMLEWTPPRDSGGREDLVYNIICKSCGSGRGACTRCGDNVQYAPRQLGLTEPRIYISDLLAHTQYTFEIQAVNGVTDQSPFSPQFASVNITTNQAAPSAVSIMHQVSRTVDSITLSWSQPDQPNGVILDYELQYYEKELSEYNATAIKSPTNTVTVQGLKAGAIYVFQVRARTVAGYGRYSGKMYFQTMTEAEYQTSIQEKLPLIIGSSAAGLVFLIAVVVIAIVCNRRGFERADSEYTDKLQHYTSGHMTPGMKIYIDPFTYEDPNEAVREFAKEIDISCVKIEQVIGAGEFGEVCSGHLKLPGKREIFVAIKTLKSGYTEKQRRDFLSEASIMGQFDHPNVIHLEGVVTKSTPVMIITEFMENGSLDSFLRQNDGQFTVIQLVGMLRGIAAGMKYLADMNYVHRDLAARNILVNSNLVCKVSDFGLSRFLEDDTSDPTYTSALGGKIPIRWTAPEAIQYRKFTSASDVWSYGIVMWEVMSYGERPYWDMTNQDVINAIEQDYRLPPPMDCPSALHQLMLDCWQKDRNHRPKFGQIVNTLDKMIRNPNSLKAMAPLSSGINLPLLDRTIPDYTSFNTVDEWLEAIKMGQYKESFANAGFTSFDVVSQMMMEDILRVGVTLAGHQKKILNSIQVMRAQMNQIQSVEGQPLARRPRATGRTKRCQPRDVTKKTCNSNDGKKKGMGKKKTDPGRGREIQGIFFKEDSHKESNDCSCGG

c-Abl (mouse) = test: as above
Fer (mouse) = test: as above
FGFR3 = FGFR3 (UniProt P22607); test: as above
Sequence of FGFR3 (P22607 whole entry, looked up): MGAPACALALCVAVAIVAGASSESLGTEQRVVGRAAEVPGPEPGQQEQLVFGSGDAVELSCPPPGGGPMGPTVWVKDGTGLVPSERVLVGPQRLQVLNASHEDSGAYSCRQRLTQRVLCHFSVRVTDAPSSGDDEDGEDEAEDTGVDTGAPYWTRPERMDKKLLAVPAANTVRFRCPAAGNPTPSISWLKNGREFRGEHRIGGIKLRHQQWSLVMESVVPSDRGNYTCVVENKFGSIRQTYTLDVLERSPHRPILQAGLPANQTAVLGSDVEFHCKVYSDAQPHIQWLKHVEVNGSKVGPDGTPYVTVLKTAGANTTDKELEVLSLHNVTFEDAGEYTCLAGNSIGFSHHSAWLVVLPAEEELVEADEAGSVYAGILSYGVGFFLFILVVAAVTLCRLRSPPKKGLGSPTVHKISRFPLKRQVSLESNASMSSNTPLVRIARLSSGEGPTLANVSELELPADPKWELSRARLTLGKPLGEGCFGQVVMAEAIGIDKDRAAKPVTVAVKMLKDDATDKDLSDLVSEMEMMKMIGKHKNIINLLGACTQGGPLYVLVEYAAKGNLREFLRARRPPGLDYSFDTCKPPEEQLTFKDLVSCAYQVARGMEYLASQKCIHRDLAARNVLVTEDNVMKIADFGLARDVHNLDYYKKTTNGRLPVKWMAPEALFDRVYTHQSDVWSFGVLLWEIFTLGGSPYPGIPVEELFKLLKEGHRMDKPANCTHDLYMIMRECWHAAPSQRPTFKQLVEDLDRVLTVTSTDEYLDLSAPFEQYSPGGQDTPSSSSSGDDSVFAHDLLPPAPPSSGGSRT

AncSZ = test: as above
FGFR1 = FGFR1 (UniProt P11362); test: as above
Fyn = Fyn (UniProt P06241); test: as above
Hck = Hck (UniProt P08631); test: as above
c-Src SH2 = test: SH2 binding enrichment of the phosphorylated peptide, bacterial display (enrichment ratio); higher = better substrate or ligand; peptides without Tyr show the background
SHP2-C SH2 = test: as above
Grb2 SH2 = Grb2 SH2 (UniProt P62993); test: as above
Sequence of Grb2 SH2 (P62993 whole entry, looked up, the tested form may be a part): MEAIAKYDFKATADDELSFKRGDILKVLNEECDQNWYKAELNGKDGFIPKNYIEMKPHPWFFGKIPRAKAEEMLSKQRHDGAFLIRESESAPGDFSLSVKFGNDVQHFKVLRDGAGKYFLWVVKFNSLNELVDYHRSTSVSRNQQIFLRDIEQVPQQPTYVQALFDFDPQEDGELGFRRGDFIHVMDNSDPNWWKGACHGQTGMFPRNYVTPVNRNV
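Throughout, for SH2 binding enrichment of the phosphorylated peptide, bacterial display: peptide library displayed on the E. coli surface as eCPX fusions, selected cells deep-sequenced, score is each peptide's frequency after selection divided by its frequency in the input.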
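Throughout, for phosphorylation enrichment, bacterial display: 11-residue human phosphosite peptides and single-mutation variants displayed on the E. coli surface, counted by deep sequencing, each peptide's frequency after selection divided by its frequency in the unselected input library; frequency after pTyr selection over input frequency; kinase dosed for 20-30% of maximal phosphorylation in three min.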

Sequence of MERTK (Q12866 whole entry, looked up): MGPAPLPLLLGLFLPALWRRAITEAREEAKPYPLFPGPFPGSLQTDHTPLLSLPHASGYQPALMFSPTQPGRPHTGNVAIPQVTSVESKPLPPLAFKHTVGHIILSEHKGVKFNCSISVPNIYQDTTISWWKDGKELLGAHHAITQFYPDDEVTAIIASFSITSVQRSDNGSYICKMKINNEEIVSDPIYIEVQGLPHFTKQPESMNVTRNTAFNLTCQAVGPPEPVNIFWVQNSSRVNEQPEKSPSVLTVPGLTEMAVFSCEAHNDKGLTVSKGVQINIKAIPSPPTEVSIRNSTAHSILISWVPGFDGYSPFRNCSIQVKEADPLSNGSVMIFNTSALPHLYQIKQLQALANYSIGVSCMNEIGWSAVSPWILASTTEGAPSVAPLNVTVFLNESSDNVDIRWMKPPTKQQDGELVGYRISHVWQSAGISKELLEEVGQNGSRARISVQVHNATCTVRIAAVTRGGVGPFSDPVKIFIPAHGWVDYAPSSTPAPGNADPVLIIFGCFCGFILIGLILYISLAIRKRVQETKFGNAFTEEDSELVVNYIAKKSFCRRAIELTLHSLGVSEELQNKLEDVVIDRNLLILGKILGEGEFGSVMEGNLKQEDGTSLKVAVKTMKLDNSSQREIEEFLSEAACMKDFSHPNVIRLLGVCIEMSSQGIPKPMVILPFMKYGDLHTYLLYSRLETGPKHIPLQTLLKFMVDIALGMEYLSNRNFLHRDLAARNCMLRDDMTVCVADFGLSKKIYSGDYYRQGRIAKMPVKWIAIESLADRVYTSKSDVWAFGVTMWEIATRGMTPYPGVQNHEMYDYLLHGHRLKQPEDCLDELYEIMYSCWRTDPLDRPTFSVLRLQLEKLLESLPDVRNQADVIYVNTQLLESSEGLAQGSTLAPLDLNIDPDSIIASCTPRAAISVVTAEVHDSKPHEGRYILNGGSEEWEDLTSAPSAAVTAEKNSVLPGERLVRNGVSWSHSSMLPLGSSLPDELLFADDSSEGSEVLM

Sequence	phosphorylation enrichment (Jak2)	phosphorylation enrichment (c-Src)	phosphorylation enrichment (MERTK)	phosphorylation enrichment (EPHB1)	phosphorylation enrichment (Fes)	phosphorylation enrichment (EPHB2)	phosphorylation enrichment (c-Abl (mouse))	phosphorylation enrichment (Fer (mouse))	phosphorylation enrichment (FGFR3)	phosphorylation enrichment (AncSZ)	phosphorylation enrichment (FGFR1)	phosphorylation enrichment (Fyn)	phosphorylation enrichment (Hck)	SH2 binding enrichment (c-Src SH2)	SH2 binding enrichment (SHP2-C SH2)	SH2 binding enrichment (Grb2 SH2)
REQREYLDQLN [CCDC88B_Y1277]	0.578	0.521	0.433	0.666	0.984	0.663	2.21	0.532	0.66	0.917	0.693	0.624	0.604	0.425	0.47	0.589
LEDDVYRKTCT [XPA_Y257_M256V]	2.14	1.2	0.864	1.14	2.07	0.724	1.74	1.09	2.23	1.89	1.05	1	1.17	0.39	0.291	0.604
KYVKMYDNHQL [MYO9A_Y203]	0.51	0.418	0.544	0.481	0.726	0.448	0.696	0.441	0.432	0.552	0.557	0.46	0.489	1.3	0.76	0.808
SIKNKYVTALY [KCNH2_Y611_D609N]	0.605	0.461	0.528	0.349	0.592	0.498	0.454	0.518	0.598	0.559	0.409	0.359	0.47	0.381	0.932	0.909
GGSTFYIDTNA [ACTL6A_Y69_P66S_YF]	1.01	0.39	0.477	0.523	0.987	0.48	0.734	0.475	0.651	0.923	0.528	0.4	0.461	0.562	0.952	0.735
VAFLFYKSIGP [ADGRL4_Y302_V300L_YF]	1.98	0.558	0.523	0.689	1.6	0.664	1.12	0.55	0.837	1.38	0.739	0.5	0.488	0.301	0.457	0.542
NDKLCYEVSSP [CDH13_Y66_R65C]	1	0.596	0.394	0.677	1.53	0.724	0.837	0.883	0.876	1.52	0.514	0.562	0.548	0.413	0.498	0.569
SDPIVYTLENI [EMR1_Y534_I533V]	1.2	4.06	0.546	0.465	1.69	0.523	0.873	2.35	0.755	1.09	0.553	4.76	0.676	0.563	0.709	0.768
SNMPTYSGHFS [GRIN2A_Y1224_T1229S]	0.662	2.61	1.15	0.585	0.581	0.784	0.684	1.04	0.45	0.594	0.433	1.7	1.48	0.491	0.643	0.898
ALEQKYWALGQ [MAP1A_Y1555]	0.886	1.82	1.3	0.53	0.735	0.492	0.537	0.436	0.665	0.768	0.674	1.39	0.875	1.49	0.662	0.867
EESSHYSTEKE [ADAR_Y587]	0.658	0.427	0.509	0.621	1.47	0.493	0.604	0.531	0.578	1.14	0.597	0.633	0.589	0.549	0.646	0.955
ECKLLYSQKEG [PTPN11_Y263_R265Q]	0.986	0.541	0.494	0.643	1.08	0.759	0.724	0.607	0.705	0.865	0.532	0.489	0.682	0.554	0.667	0.786
WKEIEYEVVPD [CPS1_Y634_R638P]	1.18	0.479	0.494	0.636	1.18	0.961	0.639	0.554	0.774	1.43	0.7	0.483	0.559	0.48	0.861	0.837
INMKKYCKKDF [NTN1_Y490_YF]	0.689	0.491	0.659	0.45	0.948	0.522	0.734	0.572	0.757	0.854	0.56	0.438	0.437	0.807	1.13	0.953
KVDKEYEVGVR [GHR_Y226_R229G]	0.553	0.414	0.41	0.434	0.796	0.48	0.658	0.398	0.493	0.752	0.472	0.401	0.452	0.534	0.764	0.851
AMGAVYQAAAL [HYOU1_Y421]	0.566	2.81	0.431	0.534	0.615	0.512	0.98	1.63	0.612	0.686	0.58	1.91	3.19	1.08	0.503	0.79
WIPIQYLIISE [NOG_Y222_P223L]	1.2	0.457	0.436	0.624	1.43	0.723	0.858	0.666	0.838	1.2	0.58	0.474	0.573	0.923	1.12	1.21
